# According to the DeepSol protein solubility set:
# Assay: soluble on expression in E. coli; label from the status in PepcDB or PDB records
row,Sequence,soluble on expression in E. coli
1,MPVNNENLTSVLDARPFELSEEQKSPLFKANLLAELVHHYQCNEMYRKFCQKNKFDPLVFDGEVADIPPIPVHIFKAIGHKLSSVSDDTIKAKLQSSATSGVPSTILLDKVTARRQTRAMARVMQEVLGPKRRPFCIMDIDPTSPNATNLGARIAAVKGYLNFASTSKYFIDADSPSAPLEFLEQKFVEHLNSLASEEPLIIFGFTFVLYHTVFKTLKDKGISFQLPKGSQVIHIGGWKKLESEKVDKITFNRDIASVLGISPDDVVDIYGFTEQMGLNYPDCKAGWKHIHAYSDVIIRDESNLEVCGPGKVGLLEFVSPLPHSYPGNVVLTDDLGVIEESLCECGKAGKRFKVIGRAKKAEVRGCGDVMSEKLTKKPSYKPLSQQEERLTIYHSPIFLEHHHHHH,not soluble
2,MGSDKIHHHHHHMVSKYHEIFLNIIQQIEDGQLKRGDKLPSIRQLSQDFHCSKDTVQKALSELKYQKYIYPILKSGYYVFEDNHEEEILPPISPSNYHNIAYEDFRTCMNETLVGREDYLFNYYHQEEGLEELTQSLQALFVDEAIYSKKENIVVTSGSQQALYILSQMTFPNQKEIILLEQPTYHRMNTLVKSQNLPYLTIERGFDGLDFNRLEEIFKQEKIKFFYTIPRLSNPLGLSYSHKEKQTLVELAHKYDVYIIEDDYMADFDRASNVSLHYLDTNDRIIYLKSFSMSLFPALRLGSLILPKKLLKKFLDYKNLIDYDTNLIMQKALSLYIDNGMFAKNKKRLKQMYYQKTSELAKEFSTFTLKLPHHIFQDSLILQLPTKVNLALLKYRLNSPNFLEKNYISTCPYHFIQLQAGENWQNLLTIFE,not soluble
3,MGSDKIHHHHHHAIVSAKWERTSSLQGIQLKQASIEGLFGGKQSISILTIGRAEGYTAFIATTDSLTTTSQLAEQSRSSAAINGSYFSIKEGFSTCYLRKNEAVIDTTTTEERHLRVNGAVHMVDNNIRIIPWNDENEKKGFPLDGDILASGPLLMQDGKTCDFTTIDREFSETRHPRSAIALTKEGDIMLVAVDGRAEGHADGMSIAELAYLLRILKAHCALNLDGGGSTTLWVNGQVVNHPSDNKKFDNKGERKVHNIIAVRRLTNP,not soluble
4,MGSEHAFQGPTSFHVIQTSSFTNSTWAQTQGSGWLDDLQIHGWDSDSGTAIFLKPWSKGNFSDKEVAELEEIFRVYIFGFAREVQDFAGDFQMKYPFEIQGIAGCELHSGGAIVSFLRGALGGLDFLSVKNASCVPSPEGGSRAQKFCALIIQYQGIMETVRILLYETCPRYLLGVLNAGKADLQRQVKPEAWLSSGPSPGPGRLQLVCHVSGFYPKPVWVMWMRGEQEQQGTQLGDILPNANWTWYLRATLDVADGEAAGLSCRVKHSSLEGQDIILYWGPGSGGGLNDIFEAQKIEWH,soluble
5,MGHHHHHHSHMAFFRRSLMTENAVLQLRAERIARATRPFLARGNRVRRCQRCLLPEKLCLCSTITPAQAKSRFCLLMFDTEPMKPSNTGRLIADILPDTVAFQWSRTEPSQDLLELVQNPDYQPMVVFPASYADEQREVIFTPPAGKPPLFIMLDGTWPEARKMFRKSPYLDNLPVISVDLSRLSAYRLREAQAEGQYCTAEVAIALLDMAGDTGAAAGLGEHFTRFKTRYLAGKTQHLGSITAEQLESV,soluble
6,MGSDKIHHHHHHMKVIKRLERYLSAAFSLGRIKSMSKDAQREIAELRLELGTLSQELKHTRQETERMWAWMRRHEALADDLVSVSRREAEVLKRTGQSDTALLLRMFSDLSRRIDGGESGRPDEKAPSSNGLPSSTGFEMFKDAFYHRFENQWRGAPEEISQRLKVYLPDVEAAWARAENKPIFDIGCGRGEWLGLLRQHGMEGIGFDTNAVQIKEGQAAGLDLRLGDALEALAQAEDNSLSVISAHHLIEHLPFDSVAWLTREAGRVLAPGGLLLFETPNTRNVLVGATTFYTDPTHLKPMPEQVMGVLLETAGFEPVDIRHINPHERLGEFLDRPGFDNELAQLMFGPQDLAILGIKSKDK,not soluble
7,MQVFDLSVDGATTIDIGASTGGFTDVMLQNSAKLVFAVDVGTNQLAWKLRQDPRVVSMEQFNFRYAEKTDFEQEPSFASIDVSFISLSLILPALHRVLADQGQVVALVKPQFEAGREQIGKNGIIRDAKVHQNVLESVTAMAVEVGFSVLGLDFSPIQGGHGNIEFLAYLKKEKSASNQILAEIKEAVERAHSQFKNE,not soluble
8,QVPPSFFQRIYRYHREHGGRFGTVHDVGAGIGPYAGELRSQFPHVIVSDIVPKNVQLAEAHLGRDGFRYRAAPVEVADDLPPGSVDLAFATNVMHFADQHAAMQAIATQLRPGGTFACAGFGPARFDDPDIQDVWERISQQGGRILLGMAEHPPDTINVMSRSSKEYNVAPLEPQWFRPGALRIRLNMAQGGITGLLPPERQQEVTDPDFAGPRDVVVYETNEEWRFETDWEGFLQHFRSFPHAGADPAAFTGLLQELKDLLDEGRCLRGCWPATLILATR,not soluble
9,MSSIVEHVVLFKLNDDDVDSGKINSMVNGINELVNLDQVLHLYCGSIHRLITTTASDFTHVLHSRYRSKEDLNAYAIHPDHVRVVKESESIREDIMAVDWIAEQAPE,not soluble
10,MGSDKIHHHHHHMGYRLTRENLNTLFHKLKEDYLIYAPKRLIGKGAFSDTDRVRYDKINNVEEIEFDVKSDFSFKEILLPISETLFFFTEDSVKEAEGPKKGAIIFLRSCDINAVKRLDQIYLKNGFEDHYYKRIREKVKFVLMPCKTSFENCFCVSMGTNQADMYDASVELREEHFYIDNKEEKWKEFLKEVSLEELEVKPSFVMENKTKVKVPEGITTKIFKSKMWDEYDSRCINCGRCNFVCPTCTCFSMQDIFYTDNGKAGERRRVWASCMVDGFTNVAGGGSYRSKNGQRMRFKVMHKVYDYKKRNGYHMCVGCGRCDDICPEYISFSNCINKLKGAIKEVEDNE,not soluble
11,MGIRLKDLSKLGYRDNVARSLVVDIVGKYCKHDTKEQIAMTLSNILEHPESYKNNEIWSKLAERLSPTVLAKEFVAYDLREDPLMYKTYGGKFIETLAKQQMNLAMRLPVTVGGALMPDAHAGYGLPIGGVLATDNAVIPYAVGVDIGCRMSLTVFDAKADFLKRYSYQIKEALKDFTHFGMDGGLGFEQEHEVLDREEFRLTPLLKDLQGKAVRQLGSSGGGNHFVEFGEIALQADNVLNLPEGSYVALLSHSGSRGLGAAIAKHYSLLAREVCKLPREAQHFAWLSLDSEEGQEYWMSMNLAGDYARACHERIHLNLSKALGLKPVANVNNHHNFAWKEEIAPGRMAIVHRKGATPAQKGQAGLIPGSMATAGYLVCGKGVEESLCSASHGAGRAMSRQKAKESFTQSALKKMLSQADVTLIGGSIEEIPLAYKDIDRVMYTQETLVEVQGRFMPRIVRMNKE,not soluble
12,MGSDKIHHHHHHMATANKNLKATWVATVTNLDWPSVSSVAITDEAARVSKQKEELTGILDEIVAMKMNAVIFQVVPCADAFYASDLLPWSKYLTGTLGKNPGFDPLAYAIEQAHARNIELHAWVNPYRVSMNASDATIEELNNSSSDSPASVFKTHPEWTGTAANRFVLNPGIPEVQTWVSNIVEEIVTKYDVDAIQFDDYFYYETASSLLQDDATYQKYNTNFTTKADWRRNNTYSLVDTCHKKIAAVKANVLFGVSPAGVWRNKSDDPLGSDTQAGASNYDFAYADTRKWVIDGIIDYIAPQVYWPFAREVARYDVITQWWADTVSGTGTALYIGMALYKVGTASETEPDWTVEGGVPEITRQLDLNDSLTEVSGCMLFRHMFLRASQTQQVVDYLKLRWADV,not soluble
13,MAHHHHHHMVTGDMSTTVTGLDPHKMARRASRFVSSVKASTGTASSTGRTEMERYFENFASMDSAEGLETIGPKGIQHLCEDLAIKRDSFEMYTLIWKLGITRGGCIPRSDWLNMVYNYNIEVPVELKRRLREWVKDARGPSFVEFYSELYDYIRGDSARMMLPETAARAWDVLFRGDQQVAQWIRWYTGFYDCEVTRDIWRHVALFFNTGENATPYRKEDAWPTAFDLFAEWRETCETP,not soluble
14,HRPLNPAMVAFSNDPLLNDLALNSSYSLLFAVNNMKSEKSAEQFYGKMDNQKMLDLVRASSTKIDFDPTLLPTMNSNPATYQGKRKNLVILLQESLGAQFVGSLGGLPLTPNLDELMQEGWQFTQMYATGTRSVRGIEAVTTGFPPSPSRAVVKLSKSQTGFFTIADLLKEQGYHTQFIYGGEANFDNMKTFFFGNGFDQIVEEKNYTNPGFVGSWGVSDEDLYNKADEEFERLSKGDKPFFSLVFTSSNHSPYEYPEGKIEQYDSEHMTRNNAVKYSDYALGTFFDKAKKSSYWDDTIFIVIADHDARVFGANLVPVKHFHIPALIIGKDIQPRKDDRIANNIDMPPTLLSLIGVDAKTPMIGRDLTKPLAREDERAMMQYDKNFGYLTRDNLVVLSPGEKVSTMEYDFESQTMKPLEVDESVIDRAKANALFASKAYQNNWYSSKRTN,soluble
15,MGSDKIHHHHHHMSKAPDFEGLAMFAKVAEERSFAAAARVLGLSVATVSRGVSRLEERLGARLFNRTSRRLALTDFGHRLAERASRLYRDAEDAENAARELSASPRGLVRLAVPMSFGLRWVAPLLPDFFKLYPDVSIDMHLSDAVVDLIGEGFDAALRIAVLPDSSLVARRLCSIAPFIVAAPSYLARHGRPSTPRDLDAHHCLGYAYRPRQDVWHFSNAAGDEEVVTPSGPLRVTNSDALVPTVLAGIAIAELPEFIASEYLADGRLQAILTDWTLPRGALYFVTPSARARPAKVEAVAGFMAAHLSRPSWQPINP,not soluble
16,SVYTYFSAVAGQDGEVDAEELQRCLTQSGINGTYSPFSLETCRIMIAMLDRDHTGKMGFNAFKELWAALNAWKENFMTVDQDGSGTVEHHELRQAIGLMGYRLSPQTLTTIVKRYSKNGRIFFDDYVACCVKLRALTDFFRKRDHLQQGSANFIYDDFLQGTMAI,soluble
17,MWIIEAEGDILKGKSRILFPGTYIVGRNVSDDSSHIQVISKSISKRHARFTILTPSEKDYFTGGPCEFEVKDLDTKFGTKVNEKVVGQNGDSYKEKDLKIQLGKCPFTINAYWRSMCIQFDNPEMLSQWASNLNLLGIPTGLRDSDATTHFVMNRQAGSSITVGTMYAFLKKTVIIDDSYLQYLSTVKESVIEDASLMPDALECFKNIIKNNDQFPSSPEDCINSLEGFSCAMLNTSSESHHLLELLGLRISTFMSLGDIDKELISKTDFVVLNNAVYDSEKISFPEGIFCLTIEQLWKIIIERNSRELISKEIERLKYATASNSTPQKIAAALEHHHHHH,soluble
18,MGKYFGTDGVRGEANVELTPELAFKLGRFGGYVLSQHETERPKVFVARDTRISGEMLESALIAGLLSVGIEVYKLGVLATPGVSYLVRTEKASAGVMISASHNPALDNGIKFFGNDGFKLADDQELEIEALLDAPEDTLPRPSAEGLGTLVDYPEGLRKYEKFLVTTGTDLSGMTVALDTANGAASVSARDVFLDLNAEIAVIGEKPNGLNINDGVGSTRPEQLQELVKETGADLGLAFDGDSDRLIAVDETGEIVDGDRIMFIIGKYLSEKGLLAHNTIVTTVMSNLGFHKALDKQGINKAITAVGDRYVVEEMRSSGYNLGGEQSGHVIIMDYNTTGDGQLTAIQLAKVMKETGKSLSELAAEVTIYPQKLVNIRVENSMKERAMEVPAIANIIAKMEDEMAGNGRILVRPSGTEPLLRVMAEAPTDAEVDYYVDTIADVVRTEIGCDN,not soluble
19,MTKVERLLINYKTLEEFKKFKEYGIQELSMLEELQDNIIENDSTSPFYGIYFGDKLVARMSLYQVNGKSNPYFDNRQDYLELWKLEVLPGYQNRGYGRALVEFAKSFKMPIRTNPRMKSAEFWNKMNFKTVKYDMARDKGEDPLIWHPDMDREMTPGESA,soluble
20,MDVKWEGFSGVEMEEVKRNVFLTTLEQLKGWARSSSLWPLTFGLACCAIEMMAVGGAHYDLDRFGSFFRASPRQADVMIVSGTVTKKMAPLLRRLYDQMPEPKWVIAMGSCATAGGPYVKSYSVVKGVDQIVPVDVYIPGCPPNPAALIYGIHKLKEKIRLEAKTGKKVL,not soluble
